Patent publication US20060229273A1

Target: hKGF receptor on the surface of PC-3 prostatic carcinoma cells (UniProt P21802)
Test: saturation binding of 125I-hKGF on PC-3 cells, Scatchard analysis

specific hKGF binding sites per cell (sites per cell): 5000
B1: Recombinant human Keratinocyte Growth Factor (hKGF) (ligand, UniProt P21781 32-194, looked up)
chain: CNDMTPEQMATNVNCSSPERHTRSYDYMEGGDIRVRRLFCRTQWYLRIDKRGKVKGTQEMKNNYNIMEIRTVAVGIVAIKGVESEFYLAMNKEGKLYAKKECNEDCNFKELILENHYNTYASAKWTHNGGEMFVALNQKGIPVRGKKTKKEQKTAHFLPMAIT
